Experiments:
[1] = molecular target: SARS-CoV-2 S on pseudovirions (Wuhan Hu-1 / IL1/2020, last 18 amino acids removed) (SARS-CoV-2, UniProt P0DTC2 14-1273); experiment: cell-based or functional assay
[2] = molecular target: T1, HCoV-OC43 spike antigens (bead panel) (HCoV-OC43, UniProt P36334 14-1297); experiment: multiplex bead assay
T1 sequence: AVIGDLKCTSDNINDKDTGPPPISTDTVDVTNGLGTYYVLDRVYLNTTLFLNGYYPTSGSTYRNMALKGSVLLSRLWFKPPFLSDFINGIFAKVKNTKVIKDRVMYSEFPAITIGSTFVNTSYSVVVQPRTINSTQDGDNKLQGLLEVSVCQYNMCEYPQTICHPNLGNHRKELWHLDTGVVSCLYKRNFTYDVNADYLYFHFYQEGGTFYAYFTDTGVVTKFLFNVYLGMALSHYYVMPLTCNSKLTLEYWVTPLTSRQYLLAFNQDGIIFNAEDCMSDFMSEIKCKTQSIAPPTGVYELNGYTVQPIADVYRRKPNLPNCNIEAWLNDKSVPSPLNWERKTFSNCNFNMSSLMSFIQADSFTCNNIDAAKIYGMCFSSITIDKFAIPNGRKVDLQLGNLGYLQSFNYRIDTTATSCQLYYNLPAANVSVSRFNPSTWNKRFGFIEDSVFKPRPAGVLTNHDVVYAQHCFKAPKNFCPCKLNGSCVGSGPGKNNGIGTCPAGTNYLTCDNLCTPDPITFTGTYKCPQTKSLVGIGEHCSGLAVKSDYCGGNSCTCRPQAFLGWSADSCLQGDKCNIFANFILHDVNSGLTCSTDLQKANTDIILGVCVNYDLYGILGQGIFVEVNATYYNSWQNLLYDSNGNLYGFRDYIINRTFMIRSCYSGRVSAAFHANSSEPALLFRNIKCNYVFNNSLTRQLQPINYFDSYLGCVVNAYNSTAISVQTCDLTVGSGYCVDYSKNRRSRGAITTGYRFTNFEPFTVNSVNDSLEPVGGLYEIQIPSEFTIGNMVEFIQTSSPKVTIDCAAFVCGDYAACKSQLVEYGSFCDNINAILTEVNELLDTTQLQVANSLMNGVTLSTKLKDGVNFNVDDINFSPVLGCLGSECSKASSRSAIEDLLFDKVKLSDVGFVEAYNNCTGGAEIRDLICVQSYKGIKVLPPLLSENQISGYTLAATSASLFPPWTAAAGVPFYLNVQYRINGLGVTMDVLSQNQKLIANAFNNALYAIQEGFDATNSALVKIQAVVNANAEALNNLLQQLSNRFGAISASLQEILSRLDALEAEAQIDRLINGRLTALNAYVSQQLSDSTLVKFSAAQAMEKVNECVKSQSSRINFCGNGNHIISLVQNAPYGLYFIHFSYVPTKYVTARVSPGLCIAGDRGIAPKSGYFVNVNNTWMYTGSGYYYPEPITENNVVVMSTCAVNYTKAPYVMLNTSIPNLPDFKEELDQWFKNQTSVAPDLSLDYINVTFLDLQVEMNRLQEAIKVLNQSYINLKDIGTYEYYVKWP

[3] = molecular target: SARS-CoV-1 spike antigens (bead panel) (SARS-CoV-1, UniProt P59594 14-1195); experiment: multiplex bead assay
[4] = molecular target: T2, HCoV-HKU1 spike antigens (bead panel) (HCoV-HKU1, UniProt Q5MQD0 13-1300); experiment: multiplex bead assay
T2 sequence: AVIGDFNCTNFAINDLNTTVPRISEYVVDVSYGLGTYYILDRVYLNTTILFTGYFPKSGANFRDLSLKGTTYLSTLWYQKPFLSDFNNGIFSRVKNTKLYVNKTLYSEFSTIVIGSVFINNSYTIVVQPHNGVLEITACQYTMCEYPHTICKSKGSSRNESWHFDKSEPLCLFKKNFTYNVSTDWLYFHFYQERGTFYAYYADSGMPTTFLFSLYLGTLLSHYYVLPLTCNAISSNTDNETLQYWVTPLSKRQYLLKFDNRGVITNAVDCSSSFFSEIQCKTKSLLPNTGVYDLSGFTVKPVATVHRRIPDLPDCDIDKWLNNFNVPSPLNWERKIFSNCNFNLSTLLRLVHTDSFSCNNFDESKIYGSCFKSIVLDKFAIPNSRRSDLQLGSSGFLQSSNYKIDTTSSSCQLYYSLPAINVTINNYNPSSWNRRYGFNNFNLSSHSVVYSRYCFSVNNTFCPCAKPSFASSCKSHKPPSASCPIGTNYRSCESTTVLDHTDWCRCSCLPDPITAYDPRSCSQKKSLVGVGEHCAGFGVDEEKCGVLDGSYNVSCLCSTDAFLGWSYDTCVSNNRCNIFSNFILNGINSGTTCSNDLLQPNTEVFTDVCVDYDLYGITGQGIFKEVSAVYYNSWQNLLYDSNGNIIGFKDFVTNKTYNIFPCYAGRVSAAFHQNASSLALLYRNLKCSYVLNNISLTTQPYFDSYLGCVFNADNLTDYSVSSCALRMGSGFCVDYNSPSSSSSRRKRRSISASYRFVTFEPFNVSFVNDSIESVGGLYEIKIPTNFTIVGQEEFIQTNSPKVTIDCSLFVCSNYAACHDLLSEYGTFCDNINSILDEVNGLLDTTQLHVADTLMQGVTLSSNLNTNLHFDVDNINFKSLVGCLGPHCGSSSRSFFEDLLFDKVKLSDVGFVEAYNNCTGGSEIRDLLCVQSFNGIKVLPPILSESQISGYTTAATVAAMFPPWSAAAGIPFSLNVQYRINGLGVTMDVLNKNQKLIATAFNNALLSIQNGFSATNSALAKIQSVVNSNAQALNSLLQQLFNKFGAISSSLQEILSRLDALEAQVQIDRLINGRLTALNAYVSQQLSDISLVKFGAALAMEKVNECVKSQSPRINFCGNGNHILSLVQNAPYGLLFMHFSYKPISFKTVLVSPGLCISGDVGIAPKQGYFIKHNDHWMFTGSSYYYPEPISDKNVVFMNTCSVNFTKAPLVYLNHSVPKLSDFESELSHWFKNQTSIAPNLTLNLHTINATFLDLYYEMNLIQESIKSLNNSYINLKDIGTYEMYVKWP

Binder | Mean IC50, pSV neutralization [1] | Mean IC80, pSV neutralization [1] | binding result [2] | binding result [3] | binding result [4]
COV_2035 (antibody, V domains shown, human IgG1) VH: QVQLVQSGAEVKKPGASVKVSCKVSGYTLPELSIHWVRQAPGKGLEWLGGFDPEDGKIIYAQKFQGRVTMTEDTSTDTAYMELSSLRSEDTAVYYCATSPAVVERGWFDPWGQGTLVTVSS VL: QSALTQPPSASGSPGQSVTISCTGTSSDVGGYNYVSWYQQHPGKAPKLMIYEVSKRPSGVPDRFSGSKSGNMASLTVSGLQAEDEANYYCSSYAGSKRVFGGGTKLTVL | 0.04 µg/ml | ≥ 25 µg/ml | no binding | no binding | 
COV_1118 (antibody, V domains shown, human IgG1) VH: EVQLVESGGGLVKPGGSLRLSCAASGFSFSNYNMNWVRQAPGKGLEWVSYISSSSSYIYYADSVKGRFTISRDNAKNSLYLQMNSLRGEDTAVYSCAREASGAYYFDRSGYFDYWGQGTLVTVSP VL: not shown |  |  | no binding | no binding | no binding
COV_1154 (antibody, V domains shown, human IgG1) VH: EVQLVESGGGLVKPGGSLRLSCAASGFRFSDYNMNWVRQAPGKGLEWVSYISSSSSYIYYADSVKGRFTISRDNAKNSLYLQMNSLRGEDTAVYSCAREASGAYYFDRSGYFDYWGQGTLVTVSP VL: DIQMTQSPSTLSASVGDRVTITCRASQSISSWLAWYQQKPGKAPNLLIYKASSLESGVPSRFSGSGSGTEFTLTISSLQPYDFATYYCQQYNSYPWAFGQGTKVEMKR |  |  | no binding | no binding | no binding
COV_1136 (antibody, V domains shown, human IgG1) VH: EVQLVESGGGLVKPGGSLRLSCAASGFTFSDCNMNWVRQAPGKGLEWVSSISSRSSYIYYADSVKGRFTISRDNAKNSLYLQMNSLRAEDTAVYSCAREASGAYYFDRSGYFDYWGQGTLVTVSP VL: DIQMTQSPSTLSASVGDRVTITCRASQSISSWLAWYQQKPGKAPNLLIYKASSLESGVPSRFSGSGSGTEFTLTISSLQPDDFATYYCQQYNTYPWTFGQGTKVEIKR |  |  | no binding | no binding | no binding
COV_2100 (antibody, V domains shown, human IgG1) VH: EVQLVESGGGLVQPGGSLRLSCAASGFTFSSYDMYWVRQATGKGLEWVSAIGTAGDTYYPGSVKGRFTISRENAKNSLYLRMNSLRAGDTAVYFCARADKNTAMFFDYWGQGTLVTVSS VL: DIQMTQSPSSLSASVGDRVTITCRASQNINNFLHWYQQKPGNAPKLLIYAASTLQSGVPSRFSGSGSGTDFTLTISSLQPEDFATYYCQQSYSTPGGTFGGGTKVEIK | 23 µg/ml | ≥ 25 µg/ml | no binding |  | no binding
COV_3053 (antibody, V domains shown, human IgG1) VH: EVQLVESGGGLVQPGRSLRLSCTASGFTLGDYAMTWVRQAPGKGLEWLGIIRNKRYGETKQYAASVKGRFTFSRDDSKGIGYLQRLSLKIEDTGVYYCTREHIVRDDAFDVWGQGTTVTVSS VL: DIVMTQSPDSLAVSLGERATINCKSSQSVLYSSNNKNYIAWYQQRPGQPPKLLIYWTSTRASGVPDRFSGSGSGTDFALTISSLQAEDVAVYYCQQYYTIPRTFGQGTKVEIK |  |  | no binding | no binding | no binding
COV_2004 (antibody, V domains shown, human IgG1) VH: QVQLVQSGAEVKKPGASVKVSCKASGYTFTGYYMHWVRQAPGQGLEWMGRINPSSGGTNYAQKFQGRVTMTRDTSISTAYMELSSLRSDDTAVYYCATDGDDGENWFDPWGQGTLVIVSS VL: DIQMTQSPSSLSASVGDRVTITCRASQGISSWLAWYQQKPEKAPKSLIYAASSLQSGVPSRFSGSGSGTDFTLTISSLQPEDFATYYCQQYNSYPYTFGQGTKLEIK | 0.04 µg/ml | 3.64 µg/ml |  | no binding | no binding
COV_2193 (antibody, V domains shown, human IgG1) VH: QVQLVQSGAEVKKPGASVKVSCKVSGYTLTDLSMHWVRQTPGKGLEWMGGFDAEDGETIYAQNFQGRVTMTEDTSIDVAYMELSSLRSEDTAVYYCATGSVGPDYWGQGTLVTVSS VL: SSELTQDPAVSVALGQTVRITCQGDSLRSYYASWFQQKPGQAPVLVIYLKNDRPSGIPDRFSGSSSGNTASLTITGAQAEDEADYYCNSRDSSGNHQVFGGGTKLTVL | ≥ 25 µg/ml | ≥ 25 µg/ml | no binding |  | no binding
COV_2137 (antibody, V domains shown, human IgG1) VH: EVQLVESGGGLVKPGGSLRLSCAASGFTFSSYTMNWVRQAPGKGLEWVSSISSGSSFIYYADSLRGRFTISRDNAKNSLYLQMNSLRAEDTAVYYCARAPEPQSVIYAYWYFDLWGRGTLVTVSS VL: QSALTQPASVSGSPGQSITFSCTGTSSDVGSYNLVSWYQQYPGKAPKLMIYEVNKRPSGVSNRFSGSKSGNTASLTISGLQAEDEADYYCCSYAGSSTFYVFGTGTKVTVLG |  |  | no binding | no binding | no binding
COV_2134 (antibody, V domains shown, human IgG1) VH: EVQLVESGGGVVQPGRSLRLSCAASGFIFSSYGMYWVRQAPGKGLEWVAVIWYDGSNKYYADSVKGRFTISRDNSKNTLYLQMNSLRAEDTAVYYCARDLSSSSGWDDYYYYYGMDVWGQGTTVTVSS VL: not shown | 16.1 µg/ml | ≥ 25 µg/ml | no binding |  | no binding
COV_1145 (antibody, V domains shown, human IgG1) VH: QVQLVESGGGVVQPGRSLRLSCAASGFTFSSYGMHWVRQAPGKGLEWVAVIWYDGSNKYYADSVKGRFTISRDNSKNTLYLQMNSLRVEDTAVYYCAREGQLGATGLDCWGQGTLVSVSS VL: SYELTQPPSVSVSPGQTARITCSGDALPKKYAYWYQQKSGQAPVLVIYEDSKRPSGIPERFSGSSSGTMATLTISGAQVEDEADYYCYSTDNSGNHWVFGGGTKLTVLG |  |  | no binding | no binding | no binding

Source: patent US20240101645A1 (HENRY M JACKSON FOUNDATION FOR THE ADVANCEMENT OF MILITARY …, published 2024)
